Laboratory results from patent publication US5478723A, “Method and apparatus for determining the role of cytochrome P450 and related enzymes in the metabolism of drugs and other chemicals” (priority 1993, dated 1995).

B1: CYP2D6: P450 enzyme in frozen human liver (protein, UniProt P10635 1-497, looked up)
Cytochrome P450 2D6: MGLEALVPLAVIVAIFLLLVDLMHRRQRWAARYPPGPLPLPGLGNLLHVDFQNTPYCFDQLRRRFGDVFSLQLAWTPVVVLNGLAAVREALVTHGEDTADRPPVPITQILGFGPRSQGVFLARYGPAWREQRRFSVSTLRNLGLGKKSLEQWVTEEAACLCAAFANHSGRPFRPNGLLDKAVSNVIASLTCGRRFEYDDPRFLRLLDLAQEGLKEESGFLREVLNAVPVLLHIPALAGKVLRFQKAFLTQLDELLTEHRMTWDPAQPPRDLTEAFLAEMEKAKGNPESSFNDENLRIVVADLFSAGMVTTSTTLAWGLLLMILHPDVQRRVQQEIDDVIGQVRRPEMGDQAHMPYTTAVIHEVQRFGDIVPLGVTHMTSRDIEVQGFRIPKGTTLITNLSSVLKDEAVWEKPFRFHPEHFLDAQGHFVKPEAFLPFSAGRRACLGEPLARMELFLFFTSLLQHFSFSVPTGQPRPSHHGVFAFLVSPSPYELCAVPR
B2: CYP2E1: P450 enzyme in frozen human liver (protein, UniProt P05181 1-493, looked up)
Cytochrome P450 2E1: MSALGVTVALLVWAAFLLLVSMWRQVHSSWNLPPGPFPLPIIGNLFQLELKNIPKSFTRLAQRFGPVFTLYVGSQRMVVMHGYKAVKEALLDYKDEFSGRGDLPAFHAHRDRGIIFNNGPTWKDIRRFSLTTLRNYGMGKQGNESRIQREAHFLLEALRKTQGQPFDPTFLIGCAPCNVIADILFRKHFDYNDEKFLRLMYLFNENFHLLSTPWLQLYNNFPSFLHYLPGSHRKVIKNVAEVKEYVSERVKEHHQSLDPNCPRDLTDCLLVEMEKEKHSAERLYTMDGITVTVADLFFAGTETTSTTLRYGLLILMKYPEIEEKLHEEIDRVIGPSRIPAIKDRQEMPYMDAVVHEIQRFITLVPSNLPHEATRDTIFRGYLIPKGTVVVPTLDSVLYDNQEFPDPEKFKPEHFLNENGKFKYSDYFKPFSTGKRVCAGEGLARMELFLLLCAILQHFNLKPLVDPKDIDLSPIHIGFGCIPPRYKLCVIPRS
B3: CYP2A6: P450 enzyme in frozen human liver (protein, UniProt P11509 1-494, looked up)
Cytochrome P450 2A6: MLASGMLLVALLVCLTVMVLMSVWQQRKSKGKLPPGPTPLPFIGNYLQLNTEQMYNSLMKISERYGPVFTIHLGPRRVVVLCGHDAVREALVDQAEEFSGRGEQATFDWVFKGYGVVFSNGERAKQLRRFSIATLRDFGVGKRGIEERIQEEAGFLIDALRGTGGANIDPTFFLSRTVSNVISSIVFGDRFDYKDKEFLSLLRMMLGIFQFTSTSTGQLYEMFSSVMKHLPGPQQQAFQLLQGLEDFIAKKVEHNQRTLDPNSPRDFIDSFLIRMQEEEKNPNTEFYLKNLVMTTLNLFIGGTETVSTTLRYGFLLLMKHPEVEAKVHEEIDRVIGKNRQPKFEDRAKMPYMEAVIHEIQRFGDVIPMSLARRVKKDTKFRDFFLPKGTEVYPMLGSVLRDPSFFSNPQDFNPQHFLNEKGQFKKSDAFVPFSIGKRNCFGEGLARMELFLFFTTVMQNFRLKSSQSPKDIDVSPKHVGFATIPRNYTMSFLPR
B4: CYP1A2: P450 enzyme in frozen human liver (protein, UniProt P05177 2-516, looked up)
Cytochrome P450 1A2: ALSQSVPFSATELLLASAIFCLVFWVLKGLRPRVPKGLKSPPEPWGWPLLGHVLTLGKNPHLALSRMSQRYGDVLQIRIGSTPVLVLSRLDTIRQALVRQGDDFKGRPDLYTSTLITDGQSLTFSTDSGPVWAARRRLAQNALNTFSIASDPASSSSCYLEEHVSKEAKALISRLQELMAGPGHFDPYNQVVVSVANVIGAMCFGQHFPESSDEMLSLVKNTHEFVETASSGNPLDFFPILRYLPNPALQRFKAFNQRFLWFLQKTVQEHYQDFDKNSVRDITGALFKHSKKGPRASGNLIPQEKIVNLVNDIFGAGFDTVTTAISWSLMYLVTKPEIQRKIQKELDTVIGRERRPRLSDRPQLPYLEAFILETFRHSSFLPFTIPHSTTRDTTLNGFYIPKKCCVFVNQWQVNHDPELWEDPSEFRPERFLTADGTAINKPLSEKMMLFGMGKRRCIGEVLAKWEIFLFLAILLQQLEFSVPPGVKVDLTPIYGLTMKHARCEHVQARLRFSIN

Assay: Storage stability of P450 enzymes in frozen human liver
Type: physicochemical
Details: human liver at -65 to -90 degrees C, up to six months
From the text: P450 enzymes in frozen liver microsomes appear to be relatively stable.

Degradation on storage, no detectable degradation:
B1
B2
B3
B4
